Measurements taken from patent publication US20240228596A1.

Each substance was assayed against SARS-COV-2 Wuhan WT Spike_del18 on VSV-delG pseudotyped particles (SARS-COV-2) (UniProt P0DTC2) (assay: cell-based or functional assay).

Substance | IC50 ug/ml, pseudoneutralization assay [µg/mL]
pX-B001_GS-VHH72-h1-E1D-S56A_(G4S)6_VHH72-h1-E1D-S56A_His8 | 0.169
pX-B002_GS-VHH72-h1-E1D-S56A_(G4S)_VHH72-h1-E1D-S56A_His8 | 0.108
pX-B003_GS-VHH72-h1-E1D-S56A_(G4S)4_VHH72-h1-E1D-S56A_His8 | 0.361
